Biological target: the molecule itself
Test: SEC; analytical size exclusion on a calibrated Superdex 200 column, buffer B, size standards 43-440 kDa; oligomeric state of the purified complex

B1: His-CooSF1 complex of Thermoanaerobacter kivui (complex)
chain 1: MSDNYIYSAEKVIDELSRKPGFVDTAIKRWEKRDPKCGFGYKGICCRLCSNGPCRITPTQPVGICGATADTIVARNLLRAIAAGTSCYVHHCRNAANTLLSVAEGKSSYTIKDEEKLKKYAKKMGINTNKDIKRIAYEFATRVLNDLSKPYTEKAELVEKLSLPARVSTWKSLNIMPGGVNEEIIAALTKTSTNLNSDPVDMAVHCLRLGIITGIYGLELTCIMQDILLGSPKIASTYSNFGVIDQGYINLATIGGHQQVVSNRILEMASSKEWVKKAQEAGAKGFKIYGVTCVGQDYELRCASDKNSAFGGYVGNNFTQEYILGTGAIDLVFSEFNCTLPGIEPICKEYLVKQICLDDVAKKVGADLYQFQPEKADEYAAITLDEAIKAYKNRRGKVKIDVPTEKTPAMTGFTEDSIKGALGGSWKLLIDLIVKGDIKGVAGVVGCSNMAAKGHGIYGVELTKELIKRDILVLGNGCVGGNLENAGLYGLESIELAGPKLKEVCRKLNIPPVLNIGPCLSIGRIHIIAEEIAEELKVDVPQIPVVASAPQWLEEQALADGTFGVVLGLDLLLGTPPAVTGSNLITELLTSKLKDMVGARFIIEADPILGADAMESSIMERRKLLNI
chain 2: MDVKSGTKYIFADIKKCLGCRCCEQACADANGNRPYWELLGSGIPLSPNINILYIFLQDKNYPVMAQAVCRQCEDAPCVKICPVKAISVNPDGIKVIDKQRCIGCHSCSIVCPFGAVYIPDKHAVATKCTLCIERKGAEGQPACVEACPNGALQLVDTKEIGREKVKKIVSDTFSNK
notes: as the chain of m1; as the chain of m2; Written as the CooS-CooF1 unit; also called His-CooFS1; source: T. kivui pMU131_His-cooS, purified (Ni2+-NTA, Superdex 200); not shown: 10 x His, N-terminal, kept
Q: How did the “stoichiometry N” value turn out when B1 was run?
A: 6

Reference: publication PMC8683389, “The monofunctional CO dehydrogenase CooS is essential for growth of Thermoanaerobacter kivui on carbon monoxide” (Extremophiles, 2021)
